# Experimental data as given in US11466067B2 (priority 2019, dated 2022).
# B1: IL-10 delivery construct: recombinant homodimeric fusion protein: N-terminal methionine, cholix386 domain, polyGlySer spacer, recombinant human IL-10 (protein)
# chain: MVEEALNIFDECRSPCSLTPEPGKPIQSKLSIPSDVVLDEGVLYYSMTINDEQNDIKDEDKGESIITIGEFATVRATRHYVNQDAPFGVIHLDITTENGTKTYSYNRKEGEFAINWLVPIGEDSPASIKISVDELDQQRNIIEVPKLYSIDLDNQTLEQWKTQGNVSFSVTRPEHNIAISWPSVSYKAAQKEGSRHKRWAHWHTGLALCWLVPMDAIYNYITQQNCTLGDNWFGGSYETVAGTPKVITVKQGIEQKPVEQRIHFSKGNAMSALAAHRVCGVPLETLARSRKPRDLTDDLSCAYQAQNIVSLFVATRILFSHLDSVFTLNLDEQEPEVAERLSDLRRINENNPGMVTQVLTVARQIYNDYVTHHPGLTPEQTSAGAQAGGGGSGGGGSGGGGSPGQGTQSENSCTHFPGNLPNMLRDLRDAFSRVKTFFQMKDQLDNLLLKESLLEDFKGYLGCQALSEMIQFYLEEVMPQAENQDPDIKAHVNSLGENLKTLRLRLRRCHRFLPCENKSKAVEQVKNAFNKLQEKGIYKAMSEFDIFINYIEAYMTMKIRN
# modifications: homodimer
# Key:
# [1] = Tablet compression force screening: tablet properties, dimer purity and recovery; type: physicochemical
# Experimental: Various compression forces were used to create F1 tablets (TABLE 31) and F2 tablets (TABLE 32). Dimer purity of the target construct was also examined following compaction into a tablet. […] Dimer recovery was also assessed following dissolution of various tablets at pH 7.0 (FIGS. 20A-20D).
# An additional tablet (F3) was created, which was similar to an F1 tablet but with glyceryl dibehenate in place of magnesium stearate (TABLE 33). This substitution was made due to incompatibility of magnesium stearate in dissolution of target constructs in solution.
# [2] = tested on: circulating cytokines; test: Plasma cytokines by MSD 10-plex, oxazolone dose response; set-up: species or system mice; settings: mouse, in vivo
# Excerpt: Plasma cytokines were quantified using the V-plex Proinflammatory Panel 1 Mouse Kit. Plasma IL-1Ra was quantitated by sandwich immunoassay using an antibody pair from the Mouse IL-1Ra/IL-1F3 DuoSet ELISA (R&D Systems #DY480), Streptavidin SULFO-TAG Labeled (MSD #R32AD-1), Multi-Array 96 Plate Pack, SECTOR Plate MSD #L15XA-3 and Read Buffer T (4×) (MSD #R92TC-2). Samples were read on the QuickPlex SQ 120 plate reader (Meso Scale Discovery, Rockville, Md.).
# [3] = tested on: DSS-induced colitis; type: in vivo, C57BL6/J mice
# [4] = tested on: colonic genes; test: Pan-colonic administration in NHP: colonic gene expression at 8 h; type: in vivo, cynomolgus monkeys
# Experimental: Colonic biopsies at each tissue timepoint were analyzed for local concentration of IL-10 delivery construct, total IL-10, IL-1Ra, soluble cytokines, activation of STAT3 and gene expression following administration of the IL-10 delivery construct. […] In addition, STC1, MTNR1A and VNN2 encode proteins that suppress the […] signaling pathway, a pathway through which key pro-inflammatory cytokines are regulated. […] This is consistent with the ability of IL-10 to suppress these cells' activation or differentiation towards a pro-inflammatory immune phenotype.
# [5] = tested on: STAT3 phosphorylation; test: In vivo pSTAT3 induction after intraluminal injection or oral gavage; set-up: species or system Balb/C mice; settings: intraluminal injection, jejunum
# Experimental: In vivo studies in mice were performed where the biological activity of human IL-10 following transcytosis was assessed for its ability to stimulate the mouse IL-10 receptor and increase phosphorylation of STAT3 (pSTAT3) in cells within the Lamina propria.
# An extensive amount of rhIL-10 (SEQ ID NO: 5) was trafficked through enterocytes. Additionally, there were a population of lymphocyte-like cells at the basolateral surface of enterocytes and within the Lamina propria that were pSTAT3 positive.
# Entire intestines of mice were isolated and processed as a “swiss role” and localization of pSTAT3 was detected by immunofluorescence confocal microscopy (FIG. 110).
# [6] = tested on: enterocytes; test: Vesicular trafficking co-localization (Rab7, Rab11, LMAN1, LAMP1) in jejunum; type: in vivo, rat
# Excerpt: The timing of LMAN1 redistribution to the basal compartment coincides with the presence of hIL-10 being ultimately detected in non-polarized cells within the Lamina propria where it was not associated with LMAN1.
# Ultimately, the delivery construct is delivered to lysosome-like structures within a large fraction of cells within the Lamina propria, an outcome that would limit its systemic distribution following A-B transcytosis.
# [7] = Intracolonic spray in NHP: IL-1Ra, pSTAT3, construct, IL-10; type: in vivo, cynomolgus monkeys
# Excerpt: This was achieved using a colonoscope with an associated spray nozzle. In this way, refined information for onset and duration of IL-1Ra induction could be obtained at specific local doses. […] The variability of pSTAT3/total STAT3 detected was consistent with tissue capture and stability challenges in this in vivo model. Measurement of tissue delivery construct levels had similar tissue capture and stability challenges, showing low and variable amounts in the tissue samples collected (FIG. 143). […] Since IL-10 can induce cells to produce more IL-10, we also looked for induced IL-10. […] It is important to note, due to the similarity of human and NHP IL-10, that ELISA values shown could also include hIL-10 that has somehow separated from the carrier domain of the delivery construct molecule. While this cannot be ruled out, no other data supports this as an outcome and it appears likely that the majority, if not all, tissue and serum IL-10 measured represents an NHP source.
# [8] = 0.3 mg/mL, 5 h
# [9] = tested on: circulating cytokines; settings: 8.45 mg/kg, Luminex
molecule,measurement,setting,value
B1,"robustness of protein to compaction, granulation and tableting (dimer purity)",[1],"robust to compaction and granulation, although some aggregation was observed in final tablet form"
same,"plasma cytokines, MSD 10-plex, vs Vehicle",[2],no significant differences
same,"edema width, mid colon",[3]; 30 mg/kg,significantly improved
same,"hyperplasia, mid colon",[3]; 30 mg/kg,significantly improved
same,"mucosal thickness, mid colon",[3]; 30 mg/kg,significantly improved
same,colon length vs vehicle,"[3]; 10 and 30 mg/kg, p<0.05",Significant improvement
same,DSS-induced body weight loss,"[3]; construct 30 mg/kg, CsA 75 mg/kg, oral q.d.",significantly reduced DSS-induced weight loss
same,"MMP1, MMP3 and MMP19 expression",[4],upregulated
same,TIMP1 expression,[4],increased
same,"anti-inflammatory genes (CD163, miR24-2, NOX1, STC1, MTNR1A, VNN2)",[4],upregulated
same,"pro-inflammatory genes (MHCII, PLA2G2D, CCL20, CCL13)",[4],decreased
same,CYP1A1 expression,[4]; 12-hour fast prior to treatment,downregulated
same,phosphorylation of STAT3 in cells within the Lamina propria,[5],increased phosphorylation of STAT3
same,co-localization with LAMP1 in polarized enterocytes,[6]; 1-15 min post ILI,Limited LAMP1/delivery construct co-localizations
same,co-localization with LMAN1,[6]; 1-15 min post ILI,co-localized with redistributing LMAN1
same,co-localization with LAMP1 in non-polarized cells of Lamina propria,[6]; 10 min and 15 min post ILI,extensive LAMP1/delivery construct co-localizations
same,co-localization with Rab7+ vesicles,[6]; enterocytes,predominantly in the apical vesicular compartment
same,co-localization with Rab11+ vesicles,[6]; enterocytes,mostly in the basal vesicular compartment
same,serum levels of the delivery construct,"[7]; cynomolgus monkey, in vivo",below the assay detection limit
same,tissue IL-10 levels,[7]; within 15 min,dose-dependent and transient increases
same,solution stability in PBS at 37 °C,[8],significant degradation
same,solution stability in PBS at RT,[8],stable
same,reduction of plasma IL-6 vs Vehicle,[9],33%
same,reduction of plasma IL-23 vs Vehicle,[9],73%
